# Publication PMC12102759 (2025)
# B1: SH3BP2 peptide 410-425 (SH3 domain-binding protein 2), 16-mer library wild type / TNKS ANK (TNKS 12 ANK repeats, residues 174-649) (parent complex)
# chain 1: LPHLQRSPPDGQSFRS
# chain 2: TGVPAVSGALRELLEACRNGDVSRVKRLVDAANVNAKDMAGRKSSPLHFAAGFGRKDVVEHLLQMGANVHARDDGGLIPLHNACSFGHAEVVSLLLCQGADPNARDNWNYTPLHEAAIKGKIDVCIVLLQHGADPNIRNTDGKSALDLADPSAKAVLTGEYKKDELLEAARSGNEEKLMALLTPLNVNCHASDGRKSTPLHLAAGYNRVRIVQLLLQHGADVHAKDKGGLVPLHNACSYGHYEVTELLLKHGACVNAMDLWQFTPLHEAASKNRVEVCSLLLSHGADPTLVNCHGKSAVDMAPTPELRERLTYEFKGHSLLQAAREADLAKVKKTLALEIINFKQPQSHETALHCAVASLHPKRKQVTELLLRKGANVNEKNKDFMTPLHVAAERAHNDVMEVLHKHGAKMNALDTLGQTALHRAALAGHLQTCRLLLSYGSDPSIISLQGFTAAQMGNEAVQQILSESTPIRTSD
# B2: ATXN2 peptide 913-928 (Ataxin-2), 16-mer library wild type / PABPC1 PABC (PABPC1 PABC domain, residues 544-623) (parent complex)
# chain 1: TLNPNAKEFNPRSFSQ
# chain 2: PLTASMLASAPPQEQKQMLGERLFPLIQAMHPTLAGKITGMLLEIDNSELLHMLESPESLRSKVDEAVAVLQAHQAKEAA
# Variants of: B1
# Experiment: proteomic peptide phage display deep mutational scan (ProP-PD DMS): M13 P8 16-mer library selected against immobilised GST-tagged bait for four days (rounds), NGS of the eluted pools per day and pseudo-replica; bait immobilised on MaxiSorp plates (10 µg), library pre-cleared on GST, 2 h binding at 4 °C, five washes; one round per day, days 1-4; value from days 2 and 3
row,Variant,screen value
1,chain 1 R15A,"0.000604 average fractional NGS count over selection days 2 and 3 (reads of this peptide / all reads for the bait, averaged over …"
2,chain 1 R15I,"0.00013 average fractional NGS count over selection days 2 and 3 (reads of this peptide / all reads for the bait, averaged over …"
3,chain 1 R15Q,"0.000422 average fractional NGS count over selection days 2 and 3 (reads of this peptide / all reads for the bait, averaged over …"
4,chain 1 R15V,"0.00361 average fractional NGS count over selection days 2 and 3 (reads of this peptide / all reads for the bait, averaged over …"
5,chain 1 R15S,"0.00343 average fractional NGS count over selection days 2 and 3 (reads of this peptide / all reads for the bait, averaged over …"
6,chain 1 R15W,"0.000302 average fractional NGS count over selection days 2 and 3 (reads of this peptide / all reads for the bait, averaged over …"
7,chain 1 R15G,"0.00618 average fractional NGS count over selection days 2 and 3 (reads of this peptide / all reads for the bait, averaged over …"
8,chain 1 R15L,"0.000467 average fractional NGS count over selection days 2 and 3 (reads of this peptide / all reads for the bait, averaged over …"
9,chain 1 R15F,"0.000621 average fractional NGS count over selection days 2 and 3 (reads of this peptide / all reads for the bait, averaged over …"
10,chain 1 R15H,"0.00172 average fractional NGS count over selection days 2 and 3 (reads of this peptide / all reads for the bait, averaged over …"
11,chain 1 R15E,"0.0203 average fractional NGS count over selection days 2 and 3 (reads of this peptide / all reads for the bait, averaged over …"
12,chain 1 P9S,"0.000178 average fractional NGS count over selection days 2 and 3 (reads of this peptide / all reads for the bait, averaged over …"
13,chain 1 P9A,"0.00156 average fractional NGS count over selection days 2 and 3 (reads of this peptide / all reads for the bait, averaged over …"
14,chain 1 F14D,"0.000786 average fractional NGS count over selection days 2 and 3 (reads of this peptide / all reads for the bait, averaged over …"
15,chain 1 F14E,"0.00017 average fractional NGS count over selection days 2 and 3 (reads of this peptide / all reads for the bait, averaged over …"
16,chain 1 F14A,"0.0212 average fractional NGS count over selection days 2 and 3 (reads of this peptide / all reads for the bait, averaged over …"
17,chain 1 F14M,"0.0018 average fractional NGS count over selection days 2 and 3 (reads of this peptide / all reads for the bait, averaged over …"
18,chain 1 F14Q,"0.000155 average fractional NGS count over selection days 2 and 3 (reads of this peptide / all reads for the bait, averaged over …"
19,chain 1 F14T,"0.0022 average fractional NGS count over selection days 2 and 3 (reads of this peptide / all reads for the bait, averaged over …"
20,chain 1 F14H,"0.000634 average fractional NGS count over selection days 2 and 3 (reads of this peptide / all reads for the bait, averaged over …"
21,chain 1 F14V,"0.000585 average fractional NGS count over selection days 2 and 3 (reads of this peptide / all reads for the bait, averaged over …"
22,chain 1 F14L,"0.000394 average fractional NGS count over selection days 2 and 3 (reads of this peptide / all reads for the bait, averaged over …"
23,chain 1 F14P,"0.000325 average fractional NGS count over selection days 2 and 3 (reads of this peptide / all reads for the bait, averaged over …"
24,chain 1 F14N,"0.000125 average fractional NGS count over selection days 2 and 3 (reads of this peptide / all reads for the bait, averaged over …"
25,chain 1 F14G,"0.000932 average fractional NGS count over selection days 2 and 3 (reads of this peptide / all reads for the bait, averaged over …"
26,chain 1 F14I,"0.00763 average fractional NGS count over selection days 2 and 3 (reads of this peptide / all reads for the bait, averaged over …"

row,Variant,screen value
1,chain 1 F14S,"0.00286 average fractional NGS count over selection days 2 and 3 (reads of this peptide / all reads for the bait, averaged over …"
2,chain 1 D10P,"0.00059 average fractional NGS count over selection days 2 and 3 (reads of this peptide / all reads for the bait, averaged over …"
3,chain 1 D10A,"0.000226 average fractional NGS count over selection days 2 and 3 (reads of this peptide / all reads for the bait, averaged over …"
4,chain 1 D10V,"0.00049 average fractional NGS count over selection days 2 and 3 (reads of this peptide / all reads for the bait, averaged over …"
5,chain 1 D10Q,"0.00104 average fractional NGS count over selection days 2 and 3 (reads of this peptide / all reads for the bait, averaged over …"
6,chain 1 Q5Y,"0.00141 average fractional NGS count over selection days 2 and 3 (reads of this peptide / all reads for the bait, averaged over …"
7,chain 1 Q5S,"0.000417 average fractional NGS count over selection days 2 and 3 (reads of this peptide / all reads for the bait, averaged over …"
8,chain 1 Q5N,"0.000679 average fractional NGS count over selection days 2 and 3 (reads of this peptide / all reads for the bait, averaged over …"
9,chain 1 Q5M,"0.00158 average fractional NGS count over selection days 2 and 3 (reads of this peptide / all reads for the bait, averaged over …"
10,chain 1 Q5T,"0.00193 average fractional NGS count over selection days 2 and 3 (reads of this peptide / all reads for the bait, averaged over …"
11,chain 1 Q5W,"0.000468 average fractional NGS count over selection days 2 and 3 (reads of this peptide / all reads for the bait, averaged over …"
12,chain 1 Q5A,"0.000231 average fractional NGS count over selection days 2 and 3 (reads of this peptide / all reads for the bait, averaged over …"
13,chain 1 Q5G,"0.00123 average fractional NGS count over selection days 2 and 3 (reads of this peptide / all reads for the bait, averaged over …"
14,chain 1 Q5F,"0.00256 average fractional NGS count over selection days 2 and 3 (reads of this peptide / all reads for the bait, averaged over …"
15,chain 1 Q5L,"0.000257 average fractional NGS count over selection days 2 and 3 (reads of this peptide / all reads for the bait, averaged over …"
16,chain 1 Q5H,"0.0031 average fractional NGS count over selection days 2 and 3 (reads of this peptide / all reads for the bait, averaged over …"
17,chain 1 P2G,"0.000225 average fractional NGS count over selection days 2 and 3 (reads of this peptide / all reads for the bait, averaged over …"
18,chain 1 P2A,"0.00048 average fractional NGS count over selection days 2 and 3 (reads of this peptide / all reads for the bait, averaged over …"
19,chain 1 P2E,"0.000462 average fractional NGS count over selection days 2 and 3 (reads of this peptide / all reads for the bait, averaged over …"
20,chain 1 P2T,"0.00034 average fractional NGS count over selection days 2 and 3 (reads of this peptide / all reads for the bait, averaged over …"
21,chain 1 P2F,"0.00201 average fractional NGS count over selection days 2 and 3 (reads of this peptide / all reads for the bait, averaged over …"
22,chain 1 P2H,"0.000416 average fractional NGS count over selection days 2 and 3 (reads of this peptide / all reads for the bait, averaged over …"
23,chain 1 P2D,"0.00379 average fractional NGS count over selection days 2 and 3 (reads of this peptide / all reads for the bait, averaged over …"
24,chain 1 P2M,"0.000224 average fractional NGS count over selection days 2 and 3 (reads of this peptide / all reads for the bait, averaged over …"
25,chain 1 P2L,"0.000238 average fractional NGS count over selection days 2 and 3 (reads of this peptide / all reads for the bait, averaged over …"

# Variants of: B2
# Experiment: as above
row,Variant,screen value
1,chain 1 S15R,"0.000394 average fractional NGS count over selection days 2 and 3 (reads of this peptide / all reads for the bait, averaged over …"
2,chain 1 S15Q,"0.000598 average fractional NGS count over selection days 2 and 3 (reads of this peptide / all reads for the bait, averaged over …"
3,chain 1 S15D,"0.000508 average fractional NGS count over selection days 2 and 3 (reads of this peptide / all reads for the bait, averaged over …"
4,chain 1 S15A,"0.000937 average fractional NGS count over selection days 2 and 3 (reads of this peptide / all reads for the bait, averaged over …"
5,chain 1 P4H,"0.000277 average fractional NGS count over selection days 2 and 3 (reads of this peptide / all reads for the bait, averaged over …"
6,chain 1 N10Q,"0.00128 average fractional NGS count over selection days 2 and 3 (reads of this peptide / all reads for the bait, averaged over …"
7,chain 1 N10T,"0.00052 average fractional NGS count over selection days 2 and 3 (reads of this peptide / all reads for the bait, averaged over …"
8,chain 1 S13D,"0.00111 average fractional NGS count over selection days 2 and 3 (reads of this peptide / all reads for the bait, averaged over …"
9,chain 1 S13G,"0.00314 average fractional NGS count over selection days 2 and 3 (reads of this peptide / all reads for the bait, averaged over …"
10,chain 1 S13N,"0.00133 average fractional NGS count over selection days 2 and 3 (reads of this peptide / all reads for the bait, averaged over …"
11,chain 1 K7G,"0.00102 average fractional NGS count over selection days 2 and 3 (reads of this peptide / all reads for the bait, averaged over …"
12,chain 1 E8Q,"0.000543 average fractional NGS count over selection days 2 and 3 (reads of this peptide / all reads for the bait, averaged over …"
13,chain 1 E8V,"0.00108 average fractional NGS count over selection days 2 and 3 (reads of this peptide / all reads for the bait, averaged over …"
14,chain 1 E8T,"0.00103 average fractional NGS count over selection days 2 and 3 (reads of this peptide / all reads for the bait, averaged over …"
15,chain 1 T1N,"0.000793 average fractional NGS count over selection days 2 and 3 (reads of this peptide / all reads for the bait, averaged over …"
16,chain 1 T1D,"0.00327 average fractional NGS count over selection days 2 and 3 (reads of this peptide / all reads for the bait, averaged over …"
17,chain 1 T1I,"0.000134 average fractional NGS count over selection days 2 and 3 (reads of this peptide / all reads for the bait, averaged over …"
18,chain 1 N5D,"0.00049 average fractional NGS count over selection days 2 and 3 (reads of this peptide / all reads for the bait, averaged over …"
19,chain 1 N5A,"0.00056 average fractional NGS count over selection days 2 and 3 (reads of this peptide / all reads for the bait, averaged over …"
20,chain 1 P11V,"0.00178 average fractional NGS count over selection days 2 and 3 (reads of this peptide / all reads for the bait, averaged over …"
21,chain 1 P11T,"0.00444 average fractional NGS count over selection days 2 and 3 (reads of this peptide / all reads for the bait, averaged over …"
22,chain 1 R12I,"0.00122 average fractional NGS count over selection days 2 and 3 (reads of this peptide / all reads for the bait, averaged over …"
23,chain 1 R12T,"0.00189 average fractional NGS count over selection days 2 and 3 (reads of this peptide / all reads for the bait, averaged over …"
24,chain 1 R12V,"0.00419 average fractional NGS count over selection days 2 and 3 (reads of this peptide / all reads for the bait, averaged over …"
